*1 amine or outer side, *2 acyl side, *3 side chain or, on linkers, in order; H or OH if unused. Primed or numbered codes have the meaning given here. Side-chain parts run from the residue outwards. [ ]: non-standard residue; d: D form. The star is where a group is joined. PEG8′ = 2-[2-[2-[2-[2-[2-[2-[2-[2-aminoethoxy]ethoxy]ethoxy]ethoxy]ethoxy]ethoxy]ethoxy]ethoxy]ethoxy]propanoyl; TTDS″ = 4-[3-[2-[2-(3-aminopropoxy)ethoxy]ethoxy]propylamino]-4-oxo-butanoyl; TtdDga = O=C(COCC(=O)[*:2])NCCCOCCOCCOCCCN[*:1]; Docosanoyl = CCCCCCCCCCCCCCCCCCCCCC(=O)*; Arachidoyl = CCCCCCCCCCCCCCCCCCCC(=O)*; γGlu = O=C(O)[C@H](CCC(=O)[*:2])N[*:1]; Pentadecanoyl = CCCCCCCCCCCCCCC(=O)*; Stearoyl = CCCCCCCCCCCCCCCCCC(=O)*; Palmitoyl = CCCCCCCCCCCCCCCC(=O)*; Myristoyl = CCCCCCCCCCCCCC(=O)*; αMeK = C[C@](N)(CCCCN)C(=O)O; Nle = CCCC[C@H](N)C(=O)O; PEG2′ = PEG2 spacer unit; Aib = CC(C)(N)C(=O)O
T1: RXFP1 receptor (UniProt Q9HBX9 1-757, limits assumed)
T1 sequence (looked up): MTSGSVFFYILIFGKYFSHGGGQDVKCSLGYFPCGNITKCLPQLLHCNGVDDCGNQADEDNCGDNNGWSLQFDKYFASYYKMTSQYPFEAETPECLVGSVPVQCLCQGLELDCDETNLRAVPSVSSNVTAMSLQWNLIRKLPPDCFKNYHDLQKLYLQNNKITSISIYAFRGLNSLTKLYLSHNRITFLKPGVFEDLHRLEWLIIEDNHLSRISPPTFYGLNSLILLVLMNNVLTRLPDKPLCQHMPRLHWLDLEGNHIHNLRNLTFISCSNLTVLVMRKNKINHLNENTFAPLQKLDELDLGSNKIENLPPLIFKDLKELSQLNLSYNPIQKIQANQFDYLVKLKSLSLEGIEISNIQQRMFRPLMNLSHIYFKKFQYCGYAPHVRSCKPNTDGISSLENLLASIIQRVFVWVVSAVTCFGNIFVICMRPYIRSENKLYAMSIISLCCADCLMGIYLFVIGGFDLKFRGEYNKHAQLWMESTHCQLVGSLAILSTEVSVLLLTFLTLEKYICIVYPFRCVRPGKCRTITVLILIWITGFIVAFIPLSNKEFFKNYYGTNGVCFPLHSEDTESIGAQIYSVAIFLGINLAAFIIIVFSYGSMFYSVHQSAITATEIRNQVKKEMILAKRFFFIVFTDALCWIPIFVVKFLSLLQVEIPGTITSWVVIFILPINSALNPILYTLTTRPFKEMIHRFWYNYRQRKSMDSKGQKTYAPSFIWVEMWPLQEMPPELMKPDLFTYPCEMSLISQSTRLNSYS


Biological target: T1, RXFP1 receptor
Assay: cell-based or functional assay

Row | Binder | EC50 (nM), OVCAR 5 cells (cAMP) [nM] | EMax, OVCAR 5 cells (cAMP) [%]
1 | Ac-LEGREKVRAK(Ac)I[Aib][Aib]EG[Nle]STFS[αMeK]RAK(Ac)[PEG2′][PEG2′][PEG2′][PEG2′]K([γGlu-γGlu-γGlu-γGlu-Pentadecanoyl])-NH2 [peptide of SEQ ID NO: 167] | 0.05 | 93
2 | Ac-LEGREKVRAK(Ac)I[Aib][Aib]EG[Nle]STFS[αMeK]RAK(Ac)[PEG2′][PEG2′][PEG2′][PEG2′]K([γGlu-γGlu-γGlu-γGlu-Myristoyl])-NH2 [peptide of SEQ ID NO: 172] | 0.56 | 95
3 | Ac-LEGREKVRAK(Ac)I[Aib][Aib]EG[Nle]STWS[Aib]RKK(Ac)K([PEG2′-PEG2′-PEG2′-γGlu-γGlu-γGlu-Arachidoyl])-NH2 [peptide of SEQ ID NO: 171] | 0.18 | 83
4 | Ac-LEGREKVRAK(Ac)I[Aib][Aib]EG[Nle]STWS[Aib]RKK(Ac)K([TTDS″-TTDS″-γGlu-γGlu-γGlu-Palmitoyl])-NH2 [peptide of SEQ ID NO: 166] | 0.26 | 92
5 | Ac-LEGREKVRAK(Ac)I[Aib][Aib]EG[Nle]STWS[Aib]RKK(Ac)[TtdDga]K([γGlu-γGlu-γGlu-Stearoyl])-NH2 (SMILES CCCCCCCCCCCCCCCCCC(=O)N[C@@H](CCC(=O)N[C@@H](CCC(=O)N[C@@H](CCC(=O)NCCCC[C@H](NC(=O)COCC(=O)NCCCOCCOCCOCCCNC(=O)[C@H](CCCCNC(C)=O)NC(=O)[C@H](CCCCN)NC(=O)[C@H](CCCNC(=N)N)NC(=O)C(C)(C)NC(=O)[C@H](CO)NC(=O)[C@H](Cc1c[nH]c2ccccc12)NC(=O)[C@@H](NC(=O)[C@H](CO)NC(=O)[C@H](CCCC)NC(=O)CNC(=O)[C@H](CCC(=O)O)NC(=O)C(C)(C)NC(=O)C(C)(C)NC(=O)[C@@H](NC(=O)[C@H](CCCCNC(C)=O)NC(=O)[C@H](C)NC(=O)[C@H](CCCNC(=N)N)NC(=O)[C@@H](NC(=O)[C@H](CCCCN)NC(=O)[C@H](CCC(=O)O)NC(=O)[C@H](CCCNC(=N)N)NC(=O)CNC(=O)[C@H](CCC(=O)O)NC(=O)[C@H](CC(C)C)NC(C)=O)C(C)C)[C@@H](C)CC)[C@@H](C)O)C(N)=O)C(=O)O)C(=O)O)C(=O)O) [peptide of SEQ ID NO: 18] | 0.41 | 83
6 | Ac-LEGREKVRAK(Ac)I[Aib][Aib]EGQSTFS[αMeK]RAK(Ac)[PEG2′][PEG2′][PEG2′][PEG2′]K([γGlu-γGlu-γGlu-γGlu-Palmitoyl])-NH2 [peptide of SEQ ID NO: 170] | 0.01 | 87
7 | Ac-LEGREKVRAK(Ac)I[Aib][Aib]EG[Nle]STFSXRAK(Ac)[PEG2′][PEG2′][PEG2′][PEG2′][γGlu][γGlu]K([γGlu-γGlu-Pentadecanoyl])-NH2 (not fully specified (some residues); printed as Ac-L-E-G-R-E-K-V-R-A-K(Ac)-I-Aib-Aib-E-G-Nle-S-T-F-S-Mly-R-A-K(Ac)-PEG2-PEG2-PEG2-PEG2-gE-gE-K(gE-gE-Penta)-NH2) [peptide of SEQ ID NO: 168] | 0.06 | 91

Next, values leading:

Row | EC50 (nM), OVCAR 5 cells (cAMP) [nM] | EMax, OVCAR 5 cells (cAMP) [%] | Binder
8 | 1.63 | 79 | Ac-LEGREKVRAK(Ac)I[Aib][Aib]EG[Nle]STWS[Aib]RKK(Ac)[PEG8′]K([γGlu-γGlu-γGlu-Palmitoyl])-NH2 [peptide of SEQ ID NO: 181]
9 | 1.18 | 84 | Ac-LEGREKVRAK(Ac)I[Aib][Aib]EGQSTWS[Aib]RKK(Ac)K([PEG2′-PEG2′-PEG2′-PEG2′-γGlu-γGlu-γGlu-γGlu-Stearoyl])-NH2 [peptide of SEQ ID NO: 180]
10 | 1.5 | 91 | Ac-LEGREKVRAQI[Aib][Aib]EGQSTWS[Aib]RKK(Ac)[TtdDga][TtdDga]K([γGlu-γGlu-γGlu-Palmitoyl])-NH2 (SMILES CCCCCCCCCCCCCCCC(=O)N[C@@H](CCC(=O)N[C@@H](CCC(=O)N[C@@H](CCC(=O)NCCCC[C@H](NC(=O)COCC(=O)NCCCOCCOCCOCCCNC(=O)COCC(=O)NCCCOCCOCCOCCCNC(=O)[C@H](CCCCNC(C)=O)NC(=O)[C@H](CCCCN)NC(=O)[C@H](CCCNC(=N)N)NC(=O)C(C)(C)NC(=O)[C@H](CO)NC(=O)[C@H](Cc1c[nH]c2ccccc12)NC(=O)[C@@H](NC(=O)[C@H](CO)NC(=O)[C@H](CCC(N)=O)NC(=O)CNC(=O)[C@H](CCC(=O)O)NC(=O)C(C)(C)NC(=O)C(C)(C)NC(=O)[C@@H](NC(=O)[C@H](CCC(N)=O)NC(=O)[C@H](C)NC(=O)[C@H](CCCNC(=N)N)NC(=O)[C@@H](NC(=O)[C@H](CCCCN)NC(=O)[C@H](CCC(=O)O)NC(=O)[C@H](CCCNC(=N)N)NC(=O)CNC(=O)[C@H](CCC(=O)O)NC(=O)[C@H](CC(C)C)NC(C)=O)C(C)C)[C@@H](C)CC)[C@@H](C)O)C(N)=O)C(=O)O)C(=O)O)C(=O)O) [peptide of SEQ ID NO: 177]
11 | 0.19 | 99 | Ac-LEGREKVRAK(Ac)I[Aib][Aib]EGQSTFS[αMeK]RAK(Ac)[PEG2′][PEG2′][PEG2′][PEG2′]K([γGlu-γGlu-γGlu-γGlu-Pentadecanoyl])-NH2 [peptide of SEQ ID NO: 182]
12 | 17.6 | 93 | Ac-LEGREKVRAK(Ac)I[Aib][Aib]EG[Nle]STWS[Aib]RKK(Ac)K([PEG2′-PEG2′-PEG2′-γGlu-γGlu-γGlu-Myristoyl])-NH2 [peptide of SEQ ID NO: 178]
13 |  | 88 | Ac-LEGREKVRAQI[Aib][Aib]EG[Nle]STWS[Aib]RKKK([PEG2′-PEG2′-PEG2′-γGlu-γGlu-γGlu-Stearoyl])-NH2 [peptide of SEQ ID NO: 174]
14 | 0.19 | 85 | Ac-LEGREKVRAK(Ac)I[Aib][Aib]EG[Nle]STWS[Aib]RKK(Ac)K([PEG2′-PEG2′-PEG2′-γGlu-γGlu-γGlu-Docosanoyl])-NH2 [peptide of SEQ ID NO: 173]
15 | 19.9 | 80 | Ac-LEGREKVRAK(Ac)I[Aib][Aib]EGQSTYS[Aib]RKK(Ac)[PEG2′][PEG2′][PEG2′]K([γGlu-γGlu-γGlu-Palmitoyl])-NH2 [peptide of SEQ ID NO: 179]
16 | 2.21 | 87 | Ac-LEGREKVRAK(Ac)I[Aib][Aib]EG[Nle]STWS[Aib]RKK(Ac)[TtdDga]K([γGlu-γGlu-γGlu-Palmitoyl])-NH2 (SMILES CCCCCCCCCCCCCCCC(=O)N[C@@H](CCC(=O)N[C@@H](CCC(=O)N[C@@H](CCC(=O)NCCCC[C@H](NC(=O)COCC(=O)NCCCOCCOCCOCCCNC(=O)[C@H](CCCCNC(C)=O)NC(=O)[C@H](CCCCN)NC(=O)[C@H](CCCNC(=N)N)NC(=O)C(C)(C)NC(=O)[C@H](CO)NC(=O)[C@H](Cc1c[nH]c2ccccc12)NC(=O)[C@@H](NC(=O)[C@H](CO)NC(=O)[C@H](CCCC)NC(=O)CNC(=O)[C@H](CCC(=O)O)NC(=O)C(C)(C)NC(=O)C(C)(C)NC(=O)[C@@H](NC(=O)[C@H](CCCCNC(C)=O)NC(=O)[C@H](C)NC(=O)[C@H](CCCNC(=N)N)NC(=O)[C@@H](NC(=O)[C@H](CCCCN)NC(=O)[C@H](CCC(=O)O)NC(=O)[C@H](CCCNC(=N)N)NC(=O)CNC(=O)[C@H](CCC(=O)O)NC(=O)[C@H](CC(C)C)NC(C)=O)C(C)C)[C@@H](C)CC)[C@@H](C)O)C(N)=O)C(=O)O)C(=O)O)C(=O)O) [peptide of SEQ ID NO: 175]
17 | 3 | 90 | Ac-LEGREKVRAK(Ac)I[Aib][Aib]EGQSTWS[Aib]RKK(Ac)[TtdDga]K([γGlu-γGlu-γGlu-Palmitoyl])-NH2 (SMILES CCCCCCCCCCCCCCCC(=O)N[C@@H](CCC(=O)N[C@@H](CCC(=O)N[C@@H](CCC(=O)NCCCC[C@H](NC(=O)COCC(=O)NCCCOCCOCCOCCCNC(=O)[C@H](CCCCNC(C)=O)NC(=O)[C@H](CCCCN)NC(=O)[C@H](CCCNC(=N)N)NC(=O)C(C)(C)NC(=O)[C@H](CO)NC(=O)[C@H](Cc1c[nH]c2ccccc12)NC(=O)[C@@H](NC(=O)[C@H](CO)NC(=O)[C@H](CCC(N)=O)NC(=O)CNC(=O)[C@H](CCC(=O)O)NC(=O)C(C)(C)NC(=O)C(C)(C)NC(=O)[C@@H](NC(=O)[C@H](CCCCNC(C)=O)NC(=O)[C@H](C)NC(=O)[C@H](CCCNC(=N)N)NC(=O)[C@@H](NC(=O)[C@H](CCCCN)NC(=O)[C@H](CCC(=O)O)NC(=O)[C@H](CCCNC(=N)N)NC(=O)CNC(=O)[C@H](CCC(=O)O)NC(=O)[C@H](CC(C)C)NC(C)=O)C(C)C)[C@@H](C)CC)[C@@H](C)O)C(N)=O)C(=O)O)C(=O)O)C(=O)O) [peptide of SEQ ID NO: 176]

Reference: US20190233493A1 (Sanofi, published 2019)
